From patent US20230137562A1, “TAU AGGREGATION INHIBITORS” (priority 2017, published 2023)
Several values for one entry are separate records, joined by “and”; a condition that tells them apart may be missing. Equal entries are not always repeated. Square brackets hold non-standard residues; d marks the D form. Ends that are not written are not given here. NMeR = CN[C@@H](CCCNC(=N)N)C(=O)O; hArg = N=C(N)NCCCC[C@H](N)C(=O)O; Orn = NCCC[C@H](N)C(=O)O

T1: Ac-VQIINK-NH2
T1 peptide: Ac-VQIINK-NH2


Tests used:
[1] = target: His-Tau40P301L Tau (UniProt P10636-8 1-441); test: cell-based or functional assay
[2] = target: T1, Ac-VQIINK-NH2; test: cell-based or functional assay

His-Tau40P301L Tau, sequence (P10636 other isoform, or with tags, fused parts or gaps limits assumed): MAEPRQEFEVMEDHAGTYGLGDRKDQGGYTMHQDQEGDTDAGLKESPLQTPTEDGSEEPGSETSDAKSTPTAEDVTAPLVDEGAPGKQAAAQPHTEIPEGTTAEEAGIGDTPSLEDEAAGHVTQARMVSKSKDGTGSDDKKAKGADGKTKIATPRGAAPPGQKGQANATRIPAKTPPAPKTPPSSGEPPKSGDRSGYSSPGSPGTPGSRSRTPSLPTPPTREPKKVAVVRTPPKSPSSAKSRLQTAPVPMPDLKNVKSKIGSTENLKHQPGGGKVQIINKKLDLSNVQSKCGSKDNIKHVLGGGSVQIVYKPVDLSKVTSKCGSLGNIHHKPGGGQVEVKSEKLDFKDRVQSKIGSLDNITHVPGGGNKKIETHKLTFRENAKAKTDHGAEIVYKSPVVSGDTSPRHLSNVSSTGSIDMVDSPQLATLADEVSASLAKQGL

Row | Binder | IC50 (µM), Tau40 assay (ThT) [1] | IC50 (µM), VQIINK Inhibition (ThT) [2]
1 | WYRIRLRYW | 1.13 µM and 1.21 µM | 2.98 µM
2 | WRIQIRW | 1.7 µM and 2.34 µM | 2.17 µM
3 | LRIRIRL | 1.82 µM | 17.8 µM
4 | RRIWIRYW | 1.96 µM | 5.61 µM
5 | WRFRLYLR | 47 µM | 2.81 µM
6 | WRLWFWWR | 1.82 µM | 1.19 µM
7 | WRLRIHW | 1.82 µM | 3.2 µM
8 | WRLKVRWW | 1.24 µM | 3.34 µM
9 | WLKVQVRLW | 1.86 µM | 1.71 µM
10 | WAIRIRW | 1.72 µM | 1.94 µM
11 | WRIRWRYW | 0.42 µM and 0.41 µM | 3.46 µM
12 | WRI[NMeR]IRW [WRI(NMe)RIRW] | 0.57 µM | 3.84 µM
13 | WWIRIRYWR | 1.48 µM and 1.58 µM | 1.79 µM
14 | WKVWVRYW | 2.09 µM | 4.93 µM
15 | RLRIWIW | 1.21 µM | 2.04 µM
16 | WWIRLRYW | 1.32 µM and 1.53 µM | 3.24 µM
17 | FRIRIRW | 1.47 µM | 4.04 µM
18 | WRIFIRW | 2.01 µM | 9.13 µM
19 | RIWLRLW | 2.14 µM | 2.01 µM
20 | WWIRIRYW | 1.1 µM and 1.38 µM | 1.92 µM
21 | WRIWLRYW | 2.05 µM | 2.32 µM
22 | WRITIRW | 1.99 µM | 2.64 µM

Row | Binder | IC50 (µM), Tau40 assay (ThT) [1] | IC50 (µM), VQIINK Inhibition (ThT) [2]
23 | RWRIWIW | 0.76 µM | 3.44 µM
24 | HRIWIRYW | 1.87 µM | 4.3 µM
25 | WRIRLWYR | 1.31 µM | 1.7 µM
26 | ERIRIRW | 12.2 µM | 5.98 µM
27 | WKLKLRWW | 2.06 µM | 0.82 µM
28 | WRIRIRL | 1.52 µM | 7.38 µM
29 | WIRIRIW | 2.03 µM and 2.04 µM | 0.81 µM and 1.72 µM
30 | RIRILIL | 2.15 µM | 1.64 µM
31 | WY[Orn]IWI[Orn]W [WYOIWIOW] | 1.92 µM | 2.45 µM
32 | WYRIWVRYW | 1.86 µM and 2.08 µM | 2.22 µM
33 | WRIRLRYW | 1.02 µM and 1.32 µM | 4.13 µM
34 | WRIRLYWW | 1.15 µM | 2.35 µM
35 | LRIRIRW | 2.07 µM | 4.31 µM
36 | RYRIWIW | 1.61 µM | 5.74 µM
37 | WWIRIRYWL | 1.2 µM and 1.31 µM | 4.88 µM
38 | WRIWIRRW | 1.68 µM | 3.85 µM
39 | WY[hArg]L[hArg]I[hArg]W [WY(hR)L(hR)I(hR)W] | 1.74 µM | 2.95 µM
40 | WRIRLWYW | 0.68 µM | 1.98 µM
41 | WKIKLKYW | 1.3 µM and 1.32 µM | 2.82 µM
42 | RIRIFIF | 1.96 µM | 2.87 µM
43 | WRIRIRYW | 1.22 µM and 1.33 µM and 1.37 µM | 2.44 µM and 3.77 µM
44 | RIWIRLW | 2.06 µM | 2.31 µM
